Reference: patent US20240384250A1, “FIBROBLAST GROWTH FACTOR 23 MODULATING COMPOUNDS” (THE UAB RESEARCH FOUNDATION, priority 2021, published 2024)
“Also recorded” adds a separate entry of the source.

Assays:
FGF23 binding to FGFR2c = molecular target: T1, FGF23 binding to FGFR2c (Homo sapiens, UniProt P21802); assay: Pull-down of FGF23 with Fc-FGFR on protein A/G beads with sKL, heparin or PBS; details: with heparin, or alone
T1 construct: Fc-coupled FGFR ectodomains were immobilized on protein A/G beads; purchased R&D Systems 2604FG025/CF or 2629FG025/CF; 712FR050
T1 sequence (P21802 22-377 limits assumed): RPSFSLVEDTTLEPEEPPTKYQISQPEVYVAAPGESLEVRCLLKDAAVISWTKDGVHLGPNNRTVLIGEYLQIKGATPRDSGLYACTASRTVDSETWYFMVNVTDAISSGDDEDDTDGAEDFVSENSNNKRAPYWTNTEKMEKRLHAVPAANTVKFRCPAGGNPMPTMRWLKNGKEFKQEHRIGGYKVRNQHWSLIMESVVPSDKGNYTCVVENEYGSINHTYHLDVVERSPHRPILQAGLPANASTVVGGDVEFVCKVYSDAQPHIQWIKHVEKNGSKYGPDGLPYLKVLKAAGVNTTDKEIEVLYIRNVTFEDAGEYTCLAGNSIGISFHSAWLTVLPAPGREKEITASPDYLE
Procedure: To study the interaction between Fc-tagged FGFR isoforms (Fc-FGFR), FGF isoforms, and sKL, immunoprecipitation studies were conducted. Protein A beads (6501, BioVision) and protein G beads (6511, BioVision) were used at 25 μl of a 50% stock slurry per sample in a total bead volume of 50 μl. Beads were washed 5× in activity buffer (50 mM Tris [pH 7.4], 200 mM NaCl, 0.01% Tween 20). Bead spin-down assays were all performed for 2 minutes at 5000 g. Beads were resuspended in 1 ml of activity buffer in a 1.5-ml snap cap tube. One microgram of Fc-FGFR1 to 4 was incubated with the beads for 1 hour on a bead rotator. Control samples were incubated with 2 μg of anti-FGF antibody instead of Fc-FGFR. Beads were then pelleted at 5000 g for 2 minutes and washed 5× with activity buffer. Beads were resuspended and incubated with different combinations of 500 ng of FGF, 1 μg of sKL, 1.6 United States Pharmacopeia (USP) units of heparin, or phosphate-buffered saline (PBS). Beads were incubated for 1 hour on a tube rotator, and beads were pelleted and washed as before. One hundred microliters of 1× Laemmli sample buffer (1610737, Bio-Rad) with 1.42 M 2-mercaptoethanol was added, and samples were boiled for 5 minutes. Samples were analyzed using SDS-PAGE and Western blotting.
The sample (20 μl) was loaded onto Mini-PROTEAN TGX Precast Gel 4-20% for experiments with <9 samples (4568094, Bio-Rad) or Criterion TGX Precast Gel 4-20% (5678094, Bio-Rad) for experiments with >9 samples. Gels were run in 1× Tris/Glycine/SDS buffer (1610732, Bio-Rad) at 150 V and stopped when the sample dye reached the end of the gel. Gels were removed and electrotransferred via a semi-dry cassette (1703940, Bio-Rad) in I× Tris/Glycine buffer (1610734, Bio-Rad) with 20% methanol. Gels were transferred onto polyvinylidene diflouride membranes (IPVH00010, Millipore) at 20 V for 1 hour. Membranes were then blocked in 5% dried milk with 0.5% Tween 20 diluted in Tris-buffered saline (TBST; pH 7.5) for 1 hour and probed with antibodies against specific antigens at 1:1000 in TBST with 5% dried milk. Blots were washed 3× for 5 minutes in TBST and probed with HRP-coupled secondary antibodies against specific species at 1:10,000 in TBST with 5% dried milk. Membranes were imaged on the SRX-101A X-ray film developer (Konica Minolta).

FGF8b binding to FGFR1c = molecular target: T2, FGF8b binding to FGFR1c (Homo sapiens, UniProt P11362); assay: Plate-based binding of paracrine FGF to Fc-FGFR1c with heparin and/or sKL; details: Fc-FGFR1c preincubated with 400 ng FLAG-sKL
T2 construct: a chimeric protein consisting of the FGFR1 ectodomain and the Fc region of a human IgG; purchased R&D Systems 423-F8/CF; 658FR050
T2 sequence (P11362 22-376 limits assumed): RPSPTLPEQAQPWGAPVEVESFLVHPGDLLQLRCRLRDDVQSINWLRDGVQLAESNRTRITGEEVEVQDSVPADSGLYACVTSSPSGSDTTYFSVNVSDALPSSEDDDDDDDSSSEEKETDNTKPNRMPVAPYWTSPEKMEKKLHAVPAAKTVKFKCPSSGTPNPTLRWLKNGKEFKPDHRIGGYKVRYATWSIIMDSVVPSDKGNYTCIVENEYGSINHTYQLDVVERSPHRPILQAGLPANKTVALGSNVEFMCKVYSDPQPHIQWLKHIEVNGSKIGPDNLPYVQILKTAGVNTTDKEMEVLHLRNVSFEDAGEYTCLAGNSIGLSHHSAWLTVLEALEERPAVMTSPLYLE
Procedure: (§1) Proteins were coated on 96-well plates (MaxiSorp; 439454, Thermo Fisher Scientific), and proteins were added to wells in 100 μl of enzyme-linked immunosorbent assay (ELISA) coating buffer (E107, Bethyl Laboratories) with a lid placed overtop and incubated at 4° C. overnight. Plates were washed 5× with 350 μl of assay buffer (50 mM Tris [pH 7.4], 200 mM NaCl, 0.01% Tween 20) on a 50 TS microplate washer (BioTek). Plates were blocked for 1 hour in 200 μl of assay buffer with 0.5% BSA. Plates were washed as before, and proteins were incubated on plates in 100 μl of assay buffer with 0.5% BSA. Proteins or heparin was incubated in orders described in the respective figure legends. Assays using FLAG-tag-based detection were incubated with anti-FLAG coupled to HRP at 1:20,000, and assays using Fc detection were incubated with anti-human Fc coupled to HRP at 1:10,000. Plates were washed as above, and 100 μl of 3,3′,5,5′-tetramethylbenzidine (TMB) substrate (E102, Bethyl Laboratories) was added for 15 to 20 minutes until positive wells developed a dark blue color. Reactions were stopped with ELISA stop solution (E115, Bethyl Laboratories) and analyzed using the Synergy HI plate reader (BioTek) at 450 nm wavelength. […] As a control to remove background absorbance values, wells were coated with an equal amount of BSA to match the amount of protein coated in experimental wells and treated the same as experimental wells. To study the effects of sKL on the binding between paracrine FGFs and FGFRs, plates were run as above except coated with paracrine FGFs. Fc-FGFR1 was preincubated with sKL or vehicle for 60 minutes, and then the combination was added to wells and the assay was run as before.

FGF2 binding to FGFR1c = molecular target: T3, FGF2 binding to FGFR1c (Homo sapiens, UniProt P11362); assay: as above; details: Fc-FGFR1c preincubated with FLAG-sKL, absence and presence of heparin
T3 construct: a chimeric protein consisting of the FGFR1 ectodomain and the Fc region of a human IgG; purchased R&D Systems 233-FB/CF; 658FR050
T3 sequence (P11362 22-376 limits assumed): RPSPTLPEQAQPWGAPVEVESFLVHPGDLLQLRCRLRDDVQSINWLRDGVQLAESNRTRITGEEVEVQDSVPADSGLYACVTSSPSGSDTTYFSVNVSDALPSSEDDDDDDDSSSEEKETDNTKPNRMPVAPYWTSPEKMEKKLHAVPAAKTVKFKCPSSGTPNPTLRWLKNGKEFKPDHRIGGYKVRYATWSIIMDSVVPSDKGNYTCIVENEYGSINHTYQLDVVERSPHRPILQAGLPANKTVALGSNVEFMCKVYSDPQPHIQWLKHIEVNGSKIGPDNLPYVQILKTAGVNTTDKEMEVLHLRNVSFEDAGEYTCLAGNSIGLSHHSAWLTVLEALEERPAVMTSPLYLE
Procedure: as §1

B1: FGF23: recombinant fibroblast growth factor 23 protein from R&D Systems (protein)
chain: YPDTSPLLGSNWGSLTHLYTATARTSYHLQIHRDGHVDGTPHQTIYSALMITSEDAGSVVITGAMTRRFLCMDLHGNIFGSLHFSPENCKFRQWTLENGYDVYLSQKHHYLVSLGRAKRIFQPGTNPPPFSQFLARRNEVPLLHFYTVRPRRHTRSAEDPPERDPLNVLKPRPRATPVPVSCSRELPSAEEGGPAASDPLGVLRRGRGDARGGAGGADRCRPFPRFV
FGF23 binding to FGFR2c
  FGF23 co-precipitation with Fc-FGFR2c: no FGF23 binding was detected

B2: sKL: recombinant soluble α-klotho ectodomain, mouse aa 35-982 and human aa 34-981, FLAG- or Strep/His-tagged, purified from HEK293 cells (protein)
chain: EPGDGAQTWARFSRPPAPEAAGLFQGTFPDGFLWAVGSAAYQTEGGWQQHGKGASIWDTFTHHPLAPPGDSRNASLPLGAPSPLQPATGDVASDSYNNVFRDTEALRELGVTHYRFSISWARVLPNGSAGVPNREGLRYYRRLLERLRELGVQPVVTLYHWDLPQRLQDAYGGWANRALADHFRDYAELCFRHFGGQVKYWITIDNPYVVAWHGYATGRLAPGIRGSPRLGYLVAHNLLLAHAKVWHLYNTSFRPTQGGQVSIALSSHWINPRRMTDHSIKECQKSLDFVLGWFAKPVFIDGDYPESMKNNLSSILPDFTESEKKFIKGTADFFALCFGPTLSFQLLDPHMKFRQLESPNLRQLLSWIDLEFNHPQIFIVENGWFVSGTTKRDDAKYMYYLKKFIMETLKAIKLDGVDVIGYTAWSLMDGFEWHRGYSIRRGLFYVDFLSQDKMLLPKSSALFYQKLIEKNGFPPLPENQPLEGTFPCDFAWGVVDNYIQVDTTLSQFTDLNVYLWDVHHSKRLIKVDGVVTKKRKSYCVDFAAIQPQIALLQEMHVTHFRFSLDWALILPLGNQSQVNHTILQYYRCMASELVRVNITPVVALWQPMAPNQGLPRLLARQGAWENPYTALAFAEYARLCFQELGHHVKLWITMNEPYTRNMTYSAGHNLLKAHALAWHVYNEKFRHAQNGKISIALQADWIEPACPFSQKDKEVAERVLEFDIGWLAEPIFGSGDYPWVMRDWLNQRNNFLLPYFTEDEKKLIQGTFDFLALSHYTTILVDSEKEDPIKYNDYLEVQEMTDITWLNSPSQVAVVPWGLRKVLNWLKFKYGDLPMYIISNGIDDGLHAEDDQLRVYYMQNYINEALKAHILDGINLCGYFAYSFNDRTAPRFGLYRYAADQFEPKASMKHYRKIIDSNGFPGPETLERFCPEEFTVCTECSFFHTRKS
modifications: left off: small tags and cut ends
notes: recombinant soluble α-klotho ectodomain, mouse aa 35-982 and human aa 34-981, FLAG- or Strep/His-tagged, purified from HEK293 cells
FGF8b binding to FGFR1c
  binding of FGFR1c to FGF8b in the presence of sKL: reduced the binding
FGF2 binding to FGFR1c
  binding of FGFR1c to FGF2 in the presence of sKL: reduced; also recorded: this effect did not occur in the presence of sKL
FGF2 binding to FGFR1c; listed as FLAG-sKL
  binding of FGFR1c to FGF2 in the presence of sKL: significantly reduced
